From US20240254203A1

Biological target: SARS COV-1 spike protein (SARS COV-1) (UniProt P59594)
Assay: cell-based or functional assay

Chain of soluble 80R scFv (VH): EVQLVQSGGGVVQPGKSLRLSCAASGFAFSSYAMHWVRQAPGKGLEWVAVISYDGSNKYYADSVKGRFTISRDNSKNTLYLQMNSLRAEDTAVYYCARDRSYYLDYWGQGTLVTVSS
Chain of soluble 80R scFv (VL): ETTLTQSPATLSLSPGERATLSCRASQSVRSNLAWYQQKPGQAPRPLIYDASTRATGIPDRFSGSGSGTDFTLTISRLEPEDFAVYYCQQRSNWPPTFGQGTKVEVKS

Substance: soluble 80R scFv
- IC50, neutralization of SARS COV-1 by the soluble scFv: 7.43 nM
